Results as given in PMC4997359 (Scientific Reports, 2016).

B1: linker histone H5 from chicken erythrocyte chromatin (natural protein, UniProt P02259 1-190, looked up)
chain: MTESLVLSPAPAKPKRVKASRRSASHPTYSEMIAAAIRAEKSRGGSSRQSIQKYIKSHYKVGHNADLQIKLSIRRLLAAGVLKQTKGVGASGSFRLAKSDKAKRSPGKKKKAVRRSTSPKKAARPRKARSPAKKPKATARKARKKSRASPKKAKKPKTVKAKSRKASKAKKVKRSKPRAKSGARKSPKKK
notes: histone H5, chicken erythrocytes; Unlabelled

How the values were obtained:
[1] = target: cross-linked H3C110AK115C-H4T71C-Alexa 488 tetramer; assay: other fluorescence titration; saturation stoichiometry: cross-linked H3C110AK115C-H4T71C-Alexa 488 at 10 times the apparent Kd titrated with NP; 150 mM NaCl, 20 mM Tris-HCl, pH 7.6, 1 mM DTT, 1% glycerol, 0.05% Tween 20
[2] = target: H2A–H2BT112C-Alexa 488 dimer (UniProt P06897); assay: other fluorescence titration; labelled H2A–H2BT112C-Alexa 488 (0.1–10 nM) titrated with increasing NP (pentamer); 150 mM NaCl, 20 mM Tris-HCl, pH 7.6, 1 mM DTT, 0.1 mg/ml BSA; apparent Kd; ligand-depleted model with 5 sites per NP pentamer
[3] = target: H3C110E-H4T71C-Alexa 488 (predominantly dimeric H3-H4 variant); assay: other fluorescence titration; labelled H3-H4 (H3C110E-H4T71C or H3C110A-H4T71C, Alexa 488; 0.1–10 nM) titrated with increasing NP (pentamer); 150 mM NaCl, 20 mM Tris-HCl, pH 7.6, 1 mM DTT, 0.1 mg/ml BSA; apparent Kd; ligand-depleted model with 2 sites per NP pentamer
[4] = target: H2A–H2BT112C-Alexa 488 dimer (UniProt P06897); assay: other fluorescence titration; saturation stoichiometry: labelled histone dimers at 10 times the apparent Kd titrated with NP; molar ratio at the intersection of the linear phase with the plateau; 150 mM NaCl, 20 mM Tris-HCl, pH 7.6, 1 mM DTT, 0.1 mg/ml BSA
[5] = target: H3C110E-H4T71C-Alexa 488 (predominantly dimeric H3-H4 variant); assay: as above
[6] = target: cross-linked H3C110AK115C-H4T71C-Alexa 488 tetramer; assay: other fluorescence titration; cross-linked H3C110AK115C-H4T71C-Alexa 488 titrated with increasing NP (pentamer); 150 mM NaCl, 20 mM Tris-HCl, pH 7.6, 1 mM DTT, 1% glycerol, 0.05% Tween 20; apparent Kd; ligand-depleted model, 1/1 NP pentamer/histone tetramer
[7] = target: full-length recombinant nucleoplasmin (rNP) (X. laevis) (UniProt P05221); assay: other fluorescence titration; competition: preformed NP/H2A–H2BT112C-Alexa 488 complexes (eNP 0.1 nM/histone 1 nM; rNP 0.5 nM/histone 5 nM) titrated with unlabelled H1 or H5; EC50 converted by the Cheng-Prusoff equation; apparent Kd
[8] = target: egg nucleoplasmin (eNP), native NP from Xenopus laevis eggs (X. laevis) (UniProt P05221); assay: as above
[9] = target: T1, full-length recombinant nucleoplasmin (rNP) (X. laevis, UniProt P05221 1-200); assay: as above; details: both partners purified
T1 construct: nucleoplasmin (NPM2), Xenopus laevis, full length recombinant, non-phosphorylated; also called recombinant NP

[10] = target: T2, egg nucleoplasmin (eNP), native NP from Xenopus laevis eggs (X. laevis, UniProt P05221 1-200, natural post-translational modifications, in particular phosphorylation (hyperphosphorylated); sites not printed in the text (circles in Figure 1A)); assay: as above; details: both partners purified
T2 construct: nucleoplasmin (NPM2), Xenopus laevis, 22 kDa subunit, residues 1-200 (core 1-120, tail 121-200); Homopentamer; also called NPM2; natural NP

Row | Molecule | Kd [2] | Kd [3] | stoichiometry N (H2A–H2B dimers per NP pentamer) [4] | also measured
1 | egg nucleoplasmin (eNP), native NP from Xenopus laevis eggs (from UniProt P05221 1-200) (natural protein) | 0.06 nM | 0.05 nM | 5 | stoichiometry N (cross-linked tetramer per NP pentamer) [1]: 1; stoichiometry N (H3-H4 dimers per NP pentamer) [5]: 2; Kd [6]: 1.1 nM
2 | full-length recombinant nucleoplasmin (rNP) (from UniProt P05221 1-200) (natural protein) | 7 nM | 3 nM | 2 | stoichiometry N (cross-linked tetramer per NP pentamer) [1]: 1; Kd [6]: 2.1 nM
3 | linker histone H1 from chicken erythrocyte chromatin (from UniProt P09987 1-218) (natural protein) |  |  |  | Kd [7]: 1.7 nM; Kd [8]: 0.07 nM
4 | oocyte nucleoplasmin (oNP), NP isolated from X. laevis oocytes (from UniProt P05221 1-200) (natural protein) | 0.11 nM | 0.09 nM | 3 | 
5 | rNPΔ120–200, recombinant nucleoplasmin core lacking the whole C-terminal domain (from UniProt P05221 1-119) (domain or fragment) | 11 nM | 16000 nM |  | 
6 | rNPΔ150–200, recombinant nucleoplasmin lacking the last 50 residues (from UniProt P05221 1-149) (domain or fragment) | 0.12 nM | 0.05 nM | 5 | 
7 | B1 |  |  |  | Kd [9]: 0.7 ± 0.2 nM; Kd [10]: 0.03 ± 0.006 nM
